Measured values as given in US9144594B2, “Cathepsin L mediated diseases and associated methods and products” (University of Miami, priority 2005, dated 2015).
Entries after “also recorded” stand apart in the source; their conditions may differ.

system: cathepsin L; test: Generation of dynamin p40 fragment in LPS-treated cultured podocytes (Western blot); assay type: cell-based, mouse; details: podocytes expressing the variant, LPS-treated
Text: Next, it was examined whether cathepsin L could process dynamin in vivo, and whether this processing required GTP binding by dynamin. To this end, cultured podocytes were infected with adenoviruses expressing dynWT as well as different dynamin mutants. Infected podocytes were subsequently treated with LPS. LPS treatment increases cathepsin L presence and the activity in the cytosol (FIG. 3), and thus is expected to induce generation of the 40 kD proteolytic fragment. Respective cytosols were probed using the GTPase antibodies in order to detect N-terminal 40 kD proteolytic fragment. Expression of dynWT in podocytes treated with LPS identified proteolytic fragments that traveled with the same mobility as fragments observed in vitro. […] Furthermore, significant amount of p40 was present in cells expressing dynR725A prior to LPS treatment. […] Given complete protection of cathepsin L cleavage by GTPγS, it was reasoned that LPS treatment was somehow inducing dynR725A self-assembly, which in turn was protecting dynR725A from cathepsin L cleavage. This in turn would explain ability of dynR725A to counteract LPS and PAN treatment (FIG. 1D). […] Biochemical difference between dynWT, dynK694A and dynR725A is that only dynR725A is impaired in the rate of GTP-hydrolysis of assembled dynamin. This is important because GTP-hydrolysis drives disassemble of dynamin. Thus, while all three dynamins are predicted to self-assemble by LPS treatment, only dynR725A will stay assembled due to its inability to hydrolyze GTP. Once assembled dynWT and dynK694A hydrolyze GTP they will fall apart and thus become accessible for cathepsin L cleavage.
To explore CatL-mediated dynamin cleavage in vivo, cultured podocytes were infected with adenoviruses encoding different dynamin mutants and subsequently treated with LPS (FIG. 19G). […] To confirm the identity of the cleavage site, the ELSGGA (SEQ ID NO.29) sequence was mutated to EQSVGA (SEQ ID NO.31) (for simplicity, the mutant is subsequently referred to as dynL356Q). […] Finally, a GTPase-defective dynamin mutant was examined. Dynamin carrying a mutation in its […] (dynR725A) oligomerizes, but is impaired in assembly-stimulated GTP-hydrolysis. DynR725A is therefore predicted to live longer in the assembled state.
Podocytes were grown under non-permissive conditions to 70% confluence. Cells were washed twice with 1×PBS and infected with 1.2 ml of serum-free DMEM media containing 100 μl transactivator virus, 100 μl virus expressing dyn1 or dyn2. After 2 h of infection at 37° C., media containing virus was replaced with full DMEM. If cells were treated with LPS or PAN, 50 μg/ml of LPS or 50 μg/ml PAN was added at this point. 18-24 h post-infection, cells were detached using trypsin and processed either for subcellular fractionation or tested in the motility assays as described in (Reiser et al., J Biol Chem 279, 34827-34832 (2004)). When stated, 20 μM of Z-FF-FMK CatL specific inhibitor (Calbiochem, San Diego, Calif.) was added simultaneously with addition of LPS.

Sequence of cathepsin L (P06797 114-333 limits assumed): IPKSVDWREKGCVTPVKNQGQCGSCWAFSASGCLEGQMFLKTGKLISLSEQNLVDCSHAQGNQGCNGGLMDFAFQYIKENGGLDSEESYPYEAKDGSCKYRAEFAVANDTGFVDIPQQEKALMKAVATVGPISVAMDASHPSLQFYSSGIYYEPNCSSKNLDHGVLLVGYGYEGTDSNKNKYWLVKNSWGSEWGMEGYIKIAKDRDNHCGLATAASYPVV

Molecule	p40 generation from dynamin variant, in words
dynWT: wild type dynamin overexpressed by adenovirus or delivered as dynamin 1 cDNA	resulted in generation of p40
dynK44A: dominant-negative dynamin mutant that cannot bind GTP (protein, UniProt Q05193 1-864, looked up, variant K44A) Dynamin-1: MGNRGMEDLIPLVNRLQDAFSAIGQNADLDLPQIAVVGGQSAGASSVLENFVGRDFLPRGSGIVTRRPLVLQLVNATTEYAEFLHCKGKKFTDFEEVRLEIEAETDRVTGTNKGISPVPINLRVYSPHVLNLTLVDLPGMTKVPVGDQPPDIEFQIRDMLMQFVTKENCLILAVSPANSDLANSDALKVAKEVDPQGQRTIGVITKLDLMDEGTDARDVLENKLLPLRRGYIGVVNRSQKDIDGKKDITAALAAERKFFLSHPSYRHLADRMGTPYLQKVLNQQLTNHIRDTLPGLRNKLQSQLLSIEKEVEEYKNFRPDDPARKTKALLQMVQQFAVDFEKRIEGSGDQIDTYELSGGARINRIFHERFPFELVKMEFDEKELRREISYAIKNIHGIRTGLFTPDMAFETIVKKQVKKIREPCLKCVDMVISELISTVRQCTKKLQQYPRLREEMERIVTTHIREREGRTKEQVMLLIDIELAYMNTNHEDFIGFANAQQRSNQMNKKKTSGNQDEILVIRKGWLTINNIGIMKGGSKEYWFVLTAENLSWYKDDEEKEKKYMLSVDNLKLRDVEKGFMSSKHIFALFNTEQRNVYKDYRQLELACETQEEVDSWKASFLRAGVYPERVGDKEKASETEENGSDSFMHSMDPQLERQVETIRNLVDSYMAIVNKTVRDLMPKTIMHLMINNTKEFIFSELLANLYSCGDQNTLMEESAEQAQRRDEMLRMYHALKEALSIIGDINTTTVSTPMPPPVDDSWLQVQSVPAGRRSPTSSPTPQRRAPAVPPARPGSRGPAPGPPPAGSALGGAPPVPSRPGASPDPFGPPPQVPSRPNRAPPGVPSRSGQASPSRPESPRPPFDL	did not result in detectable levels of p40
dynR725A: dynamin mutant (SEQ ID NO.4) with impaired GTP hydrolysis capacity (protein, listed as Homo sapiens) MGNRGMEDLIPLVNRLQDAFSAIGQNADLDLPQIAVVGGQSAGKSSVLENFVGRDFLPRGSGIVTRRPLVLQLVNATTEYAEFLHCKGKKFTDFEEVRLEIEAETDRVTGTNKGISPVPINLRVYSPHVLNLTLVDLPGMTKVPVGDQPPDIEFQIRDMLMQFVTKENCLILAVSPANSDLANSDALKVAKEVDPQGQRTIGVITKLDLMDEGTDARDVLENKLLPLRRGYIGVVNRSQKDIDGKKDITAALAAERKFFLSHPSYRHLADRMGTPYLQKVLNQQLTNHIRDTLPGLRNKLQSQLLSIEKEVEEYKNFRPDDPARKTKALLQMVQQFAVDFEKRIEGSGDQIDTYELSGGARINRIFHERFPFELVKMEFDEKELRREISYAIKNIHGIRTGLFTPDMAFETIVKKQVKKIREPCLKCVDMVISELISTVRQCTKKLQQYPRLREEMERIVTTHIREREGRTKEQVMLLIDIELAYMNTNHEDFIGFANAQQRSNQMNKKKTSGNQDEILVIRKGWLTINNIGIMKGGSKEYWFVLTAENLSWYKDDEEKEKKYMLSVDNLKLRDVEKGFMSSKHIFALFNTEQRNVYKDYRQLELACETQEEVDSWKASFLRAGVYPERVGDKEKASETEENGSDSFMHSMDPQLERQVETIRNLVDSYMAIVNKTVRDLMPKTIMHLMINNTKEFIFSELLANLYSCGDQNTLMEESAEQAQRADEMLRMYHALKEALSIIGDINTTTVSTPMPPPVDDSWLQVQSVPAGRRSPTSSPTPQRRAPAVPPARPGSRGPAPGPPPAGSALGGAPPVPSRPGASPDPFGPPPQVPSRPNRAPPGVPSRSGQASPSRPESPRPPFDL	completely abolished presence of the p40; also recorded: did not generate p40
dynL356Q, G358V: dynamin mutant (SEQ ID NO.3) not recognized by cathepsin L; ELSGGA mutated to EQSVGA (protein, listed as Homo sapiens) MGNRGMEDLIPLVNRLQDAFSAIGQNADLDLPQIAVVGGQSAGKSSVLENFVGRDFLPRGSGIVTRRPLVLQLVNATTEYAEFLHCKGKKFTDFEEVRLEIEAETDRVTGTNKGISPVPINLRVYSPHVLNLTLVDLPGMTKVPVGDQPPDIEFQIRDMLMQFVTKENCLILAVSPANSDLANSDALKVAKEVDPQGQRTIGVITKLDLMDEGTDARDVLENKLLPLRRGYIGVVNRSQKDIDGKKDITAALAAERKFFLSHPSYRHLADRMGTPYLQKVLNQQLTNHIRDTLPGLRNKLQSQLLSIEKEVEEYKNFRPDDPARKTKALLQMVQQFAVDFEKRIEGSGDQIDTYEQSVGARINRIFHERFPFELVKMEFDEKELRREISYAIKNIHGIRTGLFTPDMAFETIVKKQVKKIREPCLKCVDMVISELISTVRQCTKKLQQYPRLREEMERIVTTHIREREGRTKEQVMLLIDIELAYMNTNHEDFIGFANAQQRSNQMNKKKTSGNQDEILVIRKGWLTINNIGIMKGGSKEYWFVLTAENLSWYKDDEEKEKKYMLSVDNLKLRDVEKGFMSSKHIFALFNTEQRNVYKDYRQLELACETQEEVDSWKASFLRAGVYPERVGDKEKASETEENGSDSFMHSMDPQLERQVETIRNLVDSYMAIVNKTVRDLMPKTIMHLMINNTKEFIFSELLANLYSCGDQNTLMEESAEQAQRRDEMLRMYHALKEALSIIGDINTTTVSTPMPPPVDDSWLQVQSVPAGRRSPTSSPTPQRRAPAVPPARPGSRGPAPGPPPAGSALGGAPPVPSRPGASPDPFGPPPQVPSRPNRAPPGVPSRSGQASPSRPESPRPPFDL	yielded no p40
